Data from paper PMC11189471.

Assays:
[1] = biological target: mouse IL-33 (residues 112-270) (mouse)
[2] = biological target: mouse IL-33 (residues 112-270) (mouse); assay: SPR; 1000-1200 RU ST2-Fc captured on a protein A/G-coated CM5 chip; mIL-33 (2 µM) alone or mixed with 2.5 µM HpARI2, HpARI2_CCP2/3 or HpARI2-LD flowed; 20 mM Tris-Cl pH 8.0, 150 mM NaCl, 1 mg/ml salmon sperm DNA, 0.02% Tween-20
[3] = biological target: full-length HpARI2 (Alarmin Release Inhibitor, Heligmosomoides polygyrus bakeri) (Heligmosomoides polygyrus bakeri); assay: SPR; 400-450 RU biotinylated HpARI2 captured on the chip; two-fold series (1000 nM to 15.62 nM) of hIL-33 or hIL-33:S158R flowed
[4] = biological target: HpARI2-LD (full-length HpARI2 with residues 180-188 of the CCP3 loop deleted) (Heligmosomoides polygyrus bakeri); assay: SPR; screening of HpARI2 variants for mIL-33 binding at one concentration (legend: HpARI2 concentration of 100 nM); same reagents and equipment as the kinetic SPR; n = 3
[5] = biological target: HpARI2-LD (full-length HpARI2 with residues 180-188 of the CCP3 loop deleted) (Heligmosomoides polygyrus bakeri); assay: SPR; biotinylated HpARI2 variant (300-400 RU) captured with the Biotin CAPture kit; two-fold series of IL-33 flowed at 40 µl/min; 25 °C; 20 mM Tris-Cl pH 8.0, 150 mM NaCl, 1 mM EDTA, 0.02% Tween-20, 1 mg/ml salmon sperm DNA; Langmuir fit
[6] = biological target: HpARI2_CCP2/3 (HpARI2 lacking CCP1) (Heligmosomoides polygyrus bakeri); assay: as above
[7] = biological target: full-length HpARI2 (Alarmin Release Inhibitor, Heligmosomoides polygyrus bakeri) (Heligmosomoides polygyrus bakeri); assay: as above
[8] = biological target: HpARI2_CCP1/2 (HpARI2 lacking CCP3) (Heligmosomoides polygyrus bakeri); assay: as above
[9] = biological target: HpARI2_CCP2/3 (Heligmosomoides polygyrus bakeri); assay: SPR; biotinylated HpARI2 variant (300-400 RU) captured on a Biotin CAPture chip, two-fold series of mIL-33 (or mIL-33 R159A) injected; Biacore T200, 25 °C, 20 mM Tris-Cl pH 8.0, 150 mM NaCl, 1 mM EDTA, 0.02% Tween-20, 1 mg/ml salmon sperm DNA; Langmuir 1:1 fit

## HpARI2-LD (full-length HpARI2 with residues 180-188 of the CCP3 loop deleted) (natural protein)
[1]
  protein concentration needed for the same inhibition of IL-5 and IL-13 release as wild-type HpARI2 (bone marrow-derived ILC2s): 100 fold
[2]
  percent reduction of mIL-33 binding to ST2-Fc at 2.5 µM HpARI2-LD: 25%

## human IL-33 (from UniProt O95760 1-270) (ligand)
[3]
  Kd: 65 nM

## human IL-33 S158R mutant (from UniProt O95760) (ligand)
[3]
  fold increase of HpARI2 binding against human IL-33: > 100 fold

## mouse IL-33 (residues 112-270) (ligand)
[4]
  percent reduction of mIL-33 binding against HpARI2: 60%
[5]
  Kd: 45 nM
[6]
  Kd: 4 nM
[7]
  Kd: 0.048 nM
[8]
  Kd: 49 nM
  fold koff against full-length HpARI2: > 100 fold

## mouse IL-33 R159A (ligand)
[9]
  Kd: 3800 nM

## mouse IL-33 R159A mutant (ligand)
[6]
  fold reduction in binding affinity against wild-type mIL-33: 1000 fold
